Patent US20210380703A1 (RIGEL PHARMACEUTICALS, published 2021)

Key:
[1] = molecular target: T1, human ACVR2A (human, UniProt P27037 20-135, limits assumed); experiment: ELISA
T1 construct: coated antigen of the initial ELISA; also called activin receptor, type II A
Procedure, shortened: (§1)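 ELISA measured binding of ACVR2A-specific monoclonal antibodies to human and mouse ACVR2A. Biotinylated goat anti-human kappa light chain served as positive control and human Fc as negative control.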

[2] = molecular target: T2, mouse ACVR2A (mouse, UniProt P27038 20-135, limits assumed); experiment: ELISA
T2 construct: coated antigen of the initial ELISA
Procedure, shortened: as §1

[3] = molecular target: T3, biotinylated goat anti-human kappa light chain; experiment: ELISA, positive control
T3 construct: positive control of the ELISA
Procedure, shortened: as §1
Note: test concentration or dose not given here.

T2 sequence (P27038 20-135 limits assumed): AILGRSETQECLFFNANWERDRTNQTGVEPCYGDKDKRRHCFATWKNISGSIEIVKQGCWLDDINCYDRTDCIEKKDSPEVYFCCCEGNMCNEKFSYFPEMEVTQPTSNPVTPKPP
T1 sequence (P27037 20-135 limits assumed): as the sequence (P27038 20-135 limits assumed) above, with R20K, I73V counted along it

Row | Binder | optical density [1] [OD] | optical density [2] [OD] | optical density [3] [OD]
1 | 373_C03 (antibody, V domains shown, Group III) VH: EVQLLESGGGLVQPGGSLRLSCAASGFTFSSYSMNWVRQAPGKGLEWVSGINYNGGYKSYADSVKGRFTISRDNSKNTLYLQMNSLRAEDTAVYYCARGANWHDTALDYWGQGTLVTVSS VL: DIQMTQSPSSLSASVGDRVTITCRASQSIVTYLNWYQQKPGKAPKLVIYAATSRASGVPSRFSGSGSGTDFTLTISSLQPEDFATYYCQQSYDSPLTFGGGTKVEIK | 3.69 | 3.65 | 3.3
2 | 373_C07 (antibody, V domains shown, Group III) VH: EVQLLESGGGLVQPGGSLRLSCAASGFTFDSYSMNWVRQAPGKGLEWVAGINYNSGYTSYADSVKGRFTISRDNSKNTLYLQMNSLRAEDTAVYYCARGANWHDTHLDYWGQGTLVTVSS VL: DIQMTQSPSSLSASVGDRVTITCRASQSILTYLNWYQQKPGKAPKLVIYAATSRASGVPSRFSGSGSGTDFTLTISSLQPEDFATYYCQQSYETPLTFGGGTKVEIK | 3.57 | 3.58 | 3.3
3 | 373_F08 (antibody, V domains shown, Group III) VH: EVQLLESGGGLVQPGGSLRLSCAASGFTFSSYSMNWVRQAPGKGLEWVSGINYNGGYTSYADSVKGRFTISRDNSKNTLYLQMNSLRAEDTAVYYCARGANWHDTALDYWGQGTLVTVSS VL: DIQMTQSPSSLSASVGDRVTITCRASQSILTYLNWYQQKPGKAPKLLIYAATSRASGVPSRFSGSGSGTDFTLTISSLQPEDFATYYCQQSYDTPLTFGGGTKVEIK | 3.76 | 3.7 | 3.21
4 | 373_D12 (antibody, V domains shown, Group III) VH: EVQLLESGGGLVQPGGSLRLSCAASGFTFDSYSMNWVRQAPGKGLEWVSSINYNSGYKGYADSVKGRFTISRDNSKNTLYLQMNSLRAEDTAVYYCARGANWHDTHLDYWGQGTLVTVSS VL: DIQMTQSPSSLSASVGDRVTITCRASQSILSYVNWYQQKPGKAPKLLIYAATSRASGVPSRFSGSGSGTDFTLTISSLQPEDFATYYCQQSYSLPLTFGGGTKVEIK | 3.4 | 3.21 | 3.21
5 | 373_H07 (antibody, V domains shown, Group III) VH: EVQLLESGGGLVQPGGSLRLSCAASGFTFSSYSMNWVRQAPGKGLEWVAGINYNGGYTSYADSVKGRFTISRDNSKNTLYLQMNSLRAEDTAVYYCARGANWHDTHLDYWGQGTLVTVSS VL: DIQMTQSPSSLSASVGDRVTITCRASQSIVTYLNWYQQKPGKAPKLLIYAASSLQSGVPSRFSGSGSGTDFTLTISSLQPEDFATYYCQQSYDSPLTFGGGTKVEIK | 3.25 | 3.27 | 3.23
6 | 373_D03 (antibody, V domains shown, Group III) VH: EVQLLESGGGLVQPGGSLRLSCAASGFTFSSYSMNWVRQAPGKGLEWVSGINYNGGYTSYADSVKGRFTISRDNSKNTLYLQMNSLRAEDTAVYYCARGANWHDTALDYWGQGTLVTVSS VL: DIQMTQSPSSLSASVGDRVTITCRASQSIVSYLNWYQQKPGKAPKLLIYAATSLASGVPSRFSGSGSGTDFTLTISSLQPEDFATYYCQQSYDTPLTFGGGTKVEIK | 3.75 | 3.69 | 3.18

The next lines start with the values.

Row | optical density [1] [OD] | optical density [2] [OD] | optical density [3] [OD] | Binder
7 | 0.93 | 1.35 | 3.08 | 373_H09 (antibody, V domains shown, Group III) VH: EVQLLESGGGLVQPGGSLRLSCAASGFTFSSYGMNWVRQAPGKGLEWVASINYNSGYKSYADSVKGRFTISRDNSKNTLYLQMNSLRAEDTAVYYCARGANWHDTHLDYWGQGTLVTVSS VL: DIQMTQSPSSLSASVGDRVTITCRASQSIITYLNWYQQKPGKAPKLVIYAATSRASGVPSRFSGSGSGTDFTLTISSLQPEDFATYYCQQSDDSPLTFGGGTKVEIK
8 | 3.35 | 3.46 | 3.32 | 373_F11 (antibody, V domains shown, Group III) VH: EVQLLESGGGLVQPGGSLRLSCAASGFTFDSYGMHWVRQAPGKGLEWVSGINYNSGYTSYADSVKGRFTISRDNSKNTLYLQMNSLRAEDTAVYYCARGANWHDTHLDYWGQGTLVTVSS VL: DIQMTQSPSSLSASVGDRVTITCRASQSIVSYVNWYQQKPGKAPKLLIYAATSRASGVPSRFSGSGSGTDFTLTISSLQPEDFATYYCQQSYNLPLTFGGGTKVEIK
9 | 3.77 | 3.75 | 3 | 374_A06 (antibody, V domains shown, Group III) VH: EVQLLESGGGLVQPGGSLRLSCAASGFTFSSYSMNWVRQAPGKGLEWVSSINYNSGYTSYADSVKGRFTISRDNSKNTLYLQMNSLRAEDTAVYYCARGANWHDTHLDYWGQGTLVTVSS VL: DIQMTQSPSSLSASVGDRVTITCRASQSILSYLNWYQQKPGKAPKLVIYAATSRASGVPSRFSGSGSGTDFTLTISSLQPEDFATYYCQQSYDSPLTFGGGTKVEIK
10 | 3.27 | 3.29 | 3.22 | 373_H03 (antibody, V domains shown, Group III) VH: EVQLLESGGGLVQPGGSLRLSCAASGFTFSSYSMNWVRQAPGKGLEWVSGINYNSGYKSYADSVKGRFTISRDNSKNTLYLQMNSLRAEDTAVYYCARGANWHDTALDYWGQGTLVTVSS VL: DIQMTQSPSSLSASVGDRVTITCRASQSILSYLNWYQQKPGKAPKLLIYATTSRASGVPSRFSGSGSGTDFTLTISSLQPEDFATYYCQQSYENPLTFGGGTKVEIK
11 | 3.72 | 3.64 | 3.2 | 373_E10 (antibody, V domains shown, Group III) VH: EVQLLESGGGLVQPGGSLRLSCAASGFTFSDYSMNWVRQAPGKGLEWVSGINYNGGYTSYADSVKGRFTISRDNSKNTLYLQMNSLRAEDTAVYYCARGANWHDTALDYWGQGTLVTVSS VL: DIQMTQSPSSLSASVGDRVTITCRASQSILTYVNWYQQKPGKAPKLVIYAATSRHSGVPSRFSGSGSGTDFTLTISSLQPEDFATYYCQQSYETPLTFGGGTKVEIK
12 | 3.65 | 3.65 | 3.23 | 373_C10 (antibody, V domains shown, Group III) VH: EVQLLESGGGLVQPGGSLRLSCAASGFTFSSYSMNWVRQAPGKGLEWVAGINYNGGYTSYADSVKGRFTISRDNSKNTLYLQMNSLRAEDTAVYYCARGANWHDTALDYWGQGTLVTVSS VL: DIQMTQSPSSLSASVGDRVTITCRASQSILTYVNWYQQKPGKAPKLLIYAATSRASGVPSRFSGSGSGTDFTLTISSLQPEDFATYYCQQSYDNPLTFGGGTKVEIK
13 | 3.25 | 3.22 | 3.06 | 373_F12 (antibody, V domains shown, Group III) VH: EVQLLESGGGLVQPGGSLRLSCAASGFTFSSYSMNWVRQAPGKGLEWVSNINYNGGYTGYADSVKGRFTISRDNSKNTLYLQMNSLRAEDTAVYYCARGANWHDTALDYWGQGTLVTVSS VL: DIQMTQSPSSLSASVGDRVTITCRASQSISTYLNWYQQKPGKAPKLVIYAATSRASGVPSRFSGSGSGTDFTLTISSLQPEDFATYYCQQSYETPLTFGGGTKVEIK
14 | 3.65 | 3.67 | 3.28 | 373_G08 (antibody, V domains shown, Group III) VH: EVQLLESGGGLVQPGGSLRLSCAASGFTFDSYSMNWVRQAPGKGLEWVSNINYNGGYTSYADSVKGRFTISRDNSKNTLYLQMNSLRAEDTAVYYCARGANWHDTALDYWGQGTLVTVSS VL: DIQMTQSPSSLSASVGDRVTITCRASQSILTYLNWYQQKPGKAPKLLIYAATSLASGVPSRFSGSGSGTDFTLTISSLQPEDFATYYCQQSYDSPLTFGGGTKVEIK
